Key:
Assay type in all cases: in vivo, human
[1] = system: platinum resistant ovarian cancer (PROC); test: Dose-response and exposure-response (E-R) analysis for ORR in subjects with PROC; conditions: for ORR (%): PROC
Description: MORAb-202 was administered to subjects (N=58) with platinum resistant ovarian cancer (PROC) over a body weight (BW)-based dose range of 0.3 to 1.2 mg/kg. All doses were administered at Q3W. A dose-response assessment was carried out to calculate a relationship between dose and objective response rate (ORR) over this dose range. Clinical pharmacology assessments were conducted to evaluate the dose relationships between MORAb-202 and objective response rates (ORR) or ILD. The dose-response relationships were calculated using logistic regression analyses. An E-R efficacy (ORR) analysis was conducted with PROC subjects (N=58) across the dose range of 0.3 to 1.2 mg/kg Q3W. […] Exposure (AUC) was the only significant predictor of the probability of an objective response in multivariate analysis (as shown in FIG. 1). Age, weight, non-high grade serous OC (versus high grade serous OC), ECOG-PS (1 vs 0), and expansion (versus dose escalation) were not significant predictors of an objective response (OR). Higher doses above 1.2 mg/kg Q3W would be expected to result in a higher probability of an OR, given linear PK and lack of saturation of OR across the current dose range. Based on the results of the E-R analysis, clinically meaningful efficacy is expected across the dose range of 0.68 to 1.2 mg/kg. However, as described in section 1.2.3, an overlapping AUC dependence to ILD is observed.

[2] = system: subjects with PROC, endometrial cancer (EC), triple negative breast cancer (TNBC), and non-small cell lung cancer (NSCLC); test: Dose-response relationship for ILD across tumor types
Description: MORAb-202 was administered to subjects (N=82) with PROC, endometrial cancer (EC), triple negative breast cancer (TNBC), and non-small cell lung cancer (NSCLC) over a body weight (BW)-based dose range of 0.3 to 1.2 mg/kg. All doses were administered at Q3W. A dose-response assessment was carried out to calculate a relationship between dose and ILD rate over this dose range.
Clinical pharmacology assessments were conducted to evaluate the dose relationships between MORAb-202 and objective response rates (ORR) or ILD. The dose-response relationships were calculated using logistic regression analyses.

[3] = system: subjects with PROC and across tumor types (PROC, EC, TNBC, and NSCLC); test: Exposure-response (E-R) analysis for ILD in subjects with PROC and across all tumor types; conditions: N=96 in total (48/96); PROC 0.3 to 1.2 mg/kg Q3W and across tumor types 0.9 to 1.2 mg/kg Q3W
Description: An E-R analysis of ILD was conducted with data from subjects with PROC across the dose range of 0.3 to 1.2 mg/kg Q3W as well as subjects across tumor types (PROC, EC, TNBC, and NSCLC) across the dose range of 0.9 to 1.2 mg/kg Q3W (N=96 in total). Forty-eight subjects had ILD identified by expert review for an ILD rate of 50% (48/96) across both subject groups and dose ranges. AUC and age were significant predictors in multivariate analysis with both higher AUC and higher age predicting a higher probability of ILD. Weight, albumin, ECOG-PS (1 vs 0), Study, and tumor type (OC vs other) were not significant predictors. The probability of ILD by AUC was predicted at the median age (60 years) and plotted along with the observed ILD rate for each exposure quartile (as shown in FIG. 2).

[4] = MORAb-202 population pharmacokinetics (PPK) model
Description: Different dosing regimens were simulated to select a dose of MORAb-202 that would minimize ILD rate while maintaining a high ORR. Stochastic simulations were conducted using the MORAb-202 population pharmacokinetics (PPK) model shown in Table 13 to predict AUC and Cmax for different dosing regimens. […] BW and serum albumin were significant covariates on CL (total clearance) and BW on volume of distribution. Five dosing regimens were simulated: 1) flat dose of 63 mg; 2) BW-based dose of 0.9 mg/kg; 3) BW-based dose of 0.9 mg/kg with a maximum total dose cap of 70 mg; 4) adjusted ideal body weight (AIBW)-based dose of 1.0 mg/kg; and 5) BSA-based dose of 33 mg/m^2 (equivalent to BW-based dose of 0.9 mg/kg). All dosing regimens were simulated on a Q3W treatment cycle.

[5] = system: subjects with ovarian cancer (OC) and endometrial cancer (EC); test: Preliminary results from Phase 1/2 trial, BSA-based dosing cohorts
Excerpt: MORAb-202 will be administered as an intravenous (IV) infusion once every 3 weeks (21-day cycle). Treatment will stop upon intolerable toxicity, disease progression, or subject withdrawal for any reason. The Dose-Confirmation part will evaluate the safety and preliminary efficacy of MORAb-202 at selected dose levels in subjects with OC and EC. There will be approximately 30 subjects in the Dose-Confirmation part in 4 study treatment cohorts. If at any time ≥2 Grade ≥3 ILD/pneumonitis (National Cancer Institute Common Terminology Criteria for Adverse Events [NCI CTCAE v5.0]) events are observed, the sponsor will pause enrollment, pending IDMC review. The initial cohort will enroll 6 subjects at 25 mg/m^2 of MORAb-202. The dosing regimen for this study is body surface area (BSA)-based dosing. The dose levels to be used in this portion of the study have been matched to body weight doses of 0.9 mg/kg and 0.68 mg/kg with BSA doses of 33 mg/m^2 and 25 mg/m^2 respectively. The BSA dose equivalents were confirmed using predictions from a MORAb-202 population PK model (described in Example 1). This revised dosing regimen has been implemented in the Dose-Confirmation part of this study due to the potential to reduce the ILD risk in higher body weight subjects whilst using doses within the therapeutic index of MORAb-202. The dose evaluation part of the study was designed with two sequential cohorts at 25 mg/m^2 and 33 mg/m^2. Enrollment has been completed in the two sequential cohorts. A total of 14 subjects were enrolled and treated with MORAb-202 with 7 subjects in each cohort. Further investigation will continue at 25 mg/m^2 Q3W. […] BSA-based dosing decreased the total amount of drug (mg) compared with BW-based estimated total dose in most subjects. Additional testing is planned for every two weeks and for once per week dosing regimens.

[6] = PROC subjects (N=58), 0.3 to 1.2 mg/kg Q3W
[7] = BW-based dose 0.45 mg/kg Q3W, N = 3
[8] = BW-based dose 1.2 mg/kg Q3W, N = 24
[9] = 25 mg/m^2 Q3W, preliminary, 7 subjects per cohort

## MORAb-202
[1]; PROC subjects (N=58) across the dose range of 0.3 to 1.2 mg/kg Q3W (23/58)
  ORR: 39.7%
[1]; [6]
  subjects with a CR (complete response): 2
  subjects with a PR (partial response): Twenty-one
[1]; BW-based dose 0.3 mg/kg Q3W, N = 1
  ORR (%): 0 (0) %
[1]; [7]
  ORR (%): 0 (0) %
[1]; BW-based dose 0.68 mg/kg Q3W, N = 2
  ORR (%): 50%
[1]; BW-based dose 0.9 mg/kg Q3W, N = 28, 0.9 mg/kg
  ORR (%): 32.1%
[1]; [8]
  ORR (%): 54.2%
[2]; BW-based dose 0.3 mg/kg Q3W, N = 3
  ILD (%): 0 (0) %
[2]; [7]
  ILD (%): 0 (0) %
[2]; BW-based dose 0.68 mg/kg Q3W, N = 6
  ILD (%): 16.7%
[2]; BW-based dose 0.9 mg/kg Q3W, N = 46
  ILD (%): 37.0%
[2]; [8]
  ILD (%): 58.3%
[3]
  ILD rate (ILD identified by expert review): 50%
[4]; PPK analysis
  dose proportionality of exposures: dose proportional
[4]; final PPK model
  Inter-Individual Variabilty R CL-V1: 0.577
  Q, estimate: 0.008039 L/h
  Residual Additive (SD, ug/mL): 0.0992 µg/mL
  V1, estimate: 2.482 L
  V2, estimate: 1.875 L
[4]; final PPK model, 2-compartment, IV infusion
  CL (total clearance), estimate: 0.01595 L/h
[4]; final PPK model, covariate
  BW on V1 (exponent), estimate: 0.559
[5]; 25 mg/m^2, MORAb-202, total antibody, and released eribulin
  Mean PK profiles compared with those of a 0.68 mg/kg dose: comparable
[5]; [9]
  anti-tumor activity: initial anti-tumor activity
  safety: Acceptable safety
